Data: publication PMC12532034 (Cancer immunology research, 2025)

Molecular target: T1, GST-Rb 379–928 (UniProt P06400 379-928)
T1 sequence (looked up): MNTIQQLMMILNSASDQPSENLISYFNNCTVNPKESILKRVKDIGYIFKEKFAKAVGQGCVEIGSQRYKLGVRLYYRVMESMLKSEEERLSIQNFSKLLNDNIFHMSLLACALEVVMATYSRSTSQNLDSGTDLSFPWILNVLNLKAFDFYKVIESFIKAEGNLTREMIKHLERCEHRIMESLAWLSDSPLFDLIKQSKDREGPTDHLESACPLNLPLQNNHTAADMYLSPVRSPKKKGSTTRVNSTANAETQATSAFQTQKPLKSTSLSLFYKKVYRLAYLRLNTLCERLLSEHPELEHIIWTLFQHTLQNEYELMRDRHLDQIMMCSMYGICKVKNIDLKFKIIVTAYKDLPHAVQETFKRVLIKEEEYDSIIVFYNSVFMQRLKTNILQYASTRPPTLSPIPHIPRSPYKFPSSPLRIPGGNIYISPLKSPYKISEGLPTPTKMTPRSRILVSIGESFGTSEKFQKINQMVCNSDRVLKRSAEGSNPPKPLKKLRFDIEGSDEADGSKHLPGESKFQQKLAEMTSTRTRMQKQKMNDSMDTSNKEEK
Test: AlphaScreen or HTRF

- binding result: binds
B1: MBP-E2F1 (natural protein)
chain: not shown
